The source of these data is US11274309B2 (dated 2022).

One assay concerns the target T1, peptide on HLA-A*02:01 (human).
T1 peptide: VYALPLKML
The experiment in a line: activation reporter or marker.

The target of a further assay is T2, peptide on HLA-A*24:02 (human).
T2 peptide: VYALPLKML
The experiment in a line: activation reporter or marker.

B1: JG9-TCR (TCR, V domains shown)
Valpha: GQQLNQSPQSMFIQEGEDVSMNCTSSSIFNTWLWYKQEPGEGPVLLIALYKAGELTSNGRLTAQFGITRKDSFLNISASIPSDVGIYFCAGPMKTSYDKVIFGPGTSLSVIP
Vbeta: DAGVIQSPRHEVTEMGQEVTLRCKPISGHDYLFWYRQTMMRGLELLIYFNNNVPIDDSGMPEDRFSAKMPNASFSTLKIQPSEPRDSAVYFCASSSANYGYTFGSGTRLTVV
For the molecule B1, the binding result in the assay with peptide on HLA-A*02:01 and with peptide on HLA-A*24:02 was “no recognition” each time.
